# According to patent US7829528B2, “Compositions and methods for treating STAT-6 associated diseases or conditions” (The Rockefeller University, priority 2004, dated 2010):
# Where a SMILES comes first, the peptide text is derived from it. Where no end group is shown, it is not given here. [ ]: non-standard residue; d: D form. pY = N[C@@H](Cc1ccc(OP(=O)(O)O)cc1)C(=O)O
# What was measured:
# [1] = system: murine splenocytes; test: Uptake of FITC-conjugated PTD4 peptide by splenocytes (flow cytometry); assay type: cell-based; details: for Percent Maximum (±SEM), peptide uptake: FITC-PTD4 100 μM, normalized to 100%
# Experimental: The ability of the PTD4 protein transduction domain to enter cells was confirmed by incubating murine splenocytes with FITC-conjugated PTD4 peptide (FITC-PTD4). Splenocytes were incubated with FITC-PTD4 for various times (30 minutes to 24 hours), subsequently washed and incubated with trypsin to remove surface bound peptide, and analyzed by flow cytometry. Data was normalized to 100%. Half-maximal peptide uptake occurred at 1 hour and plateaued after 4-6 hours (Table 1).
# To monitor peptide uptake, splenocytes in Dulbecco's Modified Eagle Medium (DMEM)/10% fetal bovine serum (FBS) were incubated continuously with FITC-conjugated PTD4 peptide (100 μM) for 30 minutes to 24 hours. At each time point, surface bound peptide was removed by washing cells twice with phosphate-buffered saline (PBS) and then incubating cells with trypsin for five minutes. Ten thousand cells were subsequently analyzed by flow cytometry. To monitor the half-life of intracellular peptide (in the absence of uptake), splenocytes in DMEM/10% FBS were incubated with FITC-conjugated PTD4 peptide (100 μM) for four hours, after which they were washed twice with PBS and incubated with trypsin for five minutes. Splenocytes were returned to DMEM/10% FBS and intracellular localization of peptide monitored over time by flow cytometry.
# [2] = system: murine splenocytes; assay type: cell-based; details: mouse
# Experimental: (§1) To determine the half-life of the intracellular PTD4 peptide in the absence of further uptake, splenocytes were incubated with the FITC-PTD4 peptide for 4 hours, washed and trypsinized, and placed back into complete medium after which intracellular localization of the peptide was monitored over time by flow cytometry. […] To monitor stability of the murine-specific PTD4-STAT-6 peptide (STAT-6-IP; Tyr-Ala-Arg-Ala-Ala-Ala-Arg-Gln-Ala-Arg-Ala-Gly-Arg-Gly-Tyr*-Val-Ser-Thr-Thr; SEQ ID NO:7) in murine splenocytes, cells were incubated with the STAT-6-IP for four hours, after which they were washed and trypsinized. The presence of intracellular STAT-6-IP was monitored by western blot analysis of cell lysates harvested at different time points and resolved by SDS-PAGE. The STAT-6-IP was visualized using anti-phosphoSTAT-6 antibody and data normalized to 100% (Table 2).
# To monitor peptide uptake, splenocytes in Dulbecco's Modified Eagle Medium (DMEM)/10% fetal bovine serum (FBS) were incubated continuously with FITC-conjugated PTD4 peptide (100 μM) for 30 minutes to 24 hours. […] Ten thousand cells were subsequently analyzed by flow cytometry. […] Splenocytes were returned to DMEM/10% FBS and intracellular localization of peptide monitored over time by flow cytometry.
# [3] = Stability of intracellular STAT-6-IP in splenocytes (western blot, anti-phosphoSTAT-6 antibody); assay type: cell-based, murine; details: mouse, murine splenocytes (intracellular peptide after loading); 4 hours loading at 100 μM, washed, trypsinized
# Experimental: as §1
# (§2) To monitor stability of the STAT-6-IP in murine splenocytes, cells in DMEM/10% FBS were incubated with the STAT-6-IP (100 μM) for four hours, after which they were washed twice with PBS and trypsinized. Splenocytes were then incubated with soybean trypsin inhibitor (0.5 mg/mL in 10 mM sodium tetraborate) for 5 minutes. The cells were washed again once in PBS and subsequently placed back into complete medium. At different time points, cells were harvested and lysed in tricine sample buffer (100 mM Tris-HCl, pH 6.8, 24% glycerol, 8% SDS, 200 mM DTT). Lysates were clarified and equal concentrations (20 μg/lane) resolved by SDS-PAGE on 18% tris-tricine gels, after which proteins were transferred to PVDF membrane. For western immunoblot analysis, membranes were blocked for one hour in TBST (10 mM Tris-Cl pH 7.4, 2.5 mM EDTA, 150 mM NaCl, 0.1% TWEEN™-20) containing 0.25% gelatin (bloom 275) at room temperature. Blots were incubated with anti-phosphoSTAT-6 antibodies overnight at 4° C. followed by horseradish peroxidase-conjugated bovine anti-rabbit secondary antibody for one hour. Immunoreactive bands were detected by enhanced chemiluminescence, ECLT™ (Amersham Life Sciences, San Francisco, Calif.), visualized and quantified on a FLUORCHEM™ 8000 Imaging System using ALPHAEASE™ software (Alpha Innotech, San Leandro, Calif.).
# [4] = system: murine splenocytes; test: as above; assay type: cell-based; details: for Percent Maximum (±STD), intracellular STAT-6-IP: normalized to 100%
# Experimental: as §1, §2
Compound,"Percent Maximum (±SEM), peptide uptake ([1]; 0 hours)","Percent Maximum (±SEM), peptide uptake ([1]; 0.5 hours)","Percent Maximum (±SEM), peptide uptake ([1]; 1.0 hours)","Percent Maximum (±SEM), peptide uptake ([1]; 2.0 hours)","Percent Maximum (±SEM), peptide uptake ([1]; 4.0 hours)","Percent Maximum (±SEM), peptide uptake ([1]; 6.0 hours)","Percent Maximum (±SEM), peptide uptake ([1]; 24.0 hours)","Time after which peptide uptake plateaued ([1]; continuous incubation, 100 μM)","Time of half-maximal peptide uptake ([1]; continuous incubation, 100 μM)",Half-life of intracellular peptide [2],half-life at 100 μM [3],"Percent Maximum (±STD), intracellular STAT-6-IP ([4]; 0.5 hours after 4 hours loading at 100 μM)","Percent Maximum (±STD), intracellular STAT-6-IP ([4]; 1.0 hours after 4 hours loading at 100 μM)","Percent Maximum (±STD), intracellular STAT-6-IP ([4]; 4.0 hours after 4 hours loading at 100 μM)","Time peptide remained in the cells ([4]; 4 hours loading at 100 μM, washed, trypsinized)","Percent Maximum (±STD), intracellular STAT-6-IP ([4]; 6.0 hours after 4 hours loading at 100 μM)","Percent Maximum (±STD), intracellular STAT-6-IP ([4]; 8.0 hours after 4 hours loading at 100 μM)","Percent Maximum (±STD), intracellular STAT-6-IP ([4]; 24.0 hours after 4 hours loading at 100 μM)"
"FITC-PTD4: FITC-conjugated PTD4 protein transduction domain peptide (PTD4: Tyr-Ala-Arg-Ala-Ala-Ala-Arg-Gln-Ala-Arg-Ala; SEQ ID NO:6) (YARAAARQARA; not fully specified (N-terminus); printed as Tyr-Ala-Arg-Ala-Ala-Ala-Arg-Gln-Ala-Arg-Ala; also: FITC label, position not given here)",4.16 ± 0.53%,31.2 ± 4.35%,46.57 ± 6.63%,69.70 ± 8.60%,72.86 ± 8.51%,76.71 ± 7.58%,78.49 ± 14.11%,4 to 6 h,1 h,approximately four,–,–,–,–,–,–,–,–
"CC(C)[C@H](NC(=O)[C@H](Cc1ccc(OP(=O)(O)O)cc1)NC(=O)CNC(=O)[C@H](CCCNC(=N)N)NC(=O)CNC(=O)[C@H](C)NC(=O)[C@H](CCCNC(=N)N)NC(=O)[C@H](C)NC(=O)[C@H](CCC(N)=O)NC(=O)[C@H](CCCNC(=N)N)NC(=O)[C@H](C)NC(=O)[C@H](C)NC(=O)[C@H](C)NC(=O)[C@H](CCCNC(=N)N)NC(=O)[C@H](C)NC(=O)[C@@H](N)Cc1ccc(O)cc1)C(=O)N[C@@H](CO)C(=O)N[C@H](C(=O)N[C@H](C(=O)O)[C@@H](C)O)[C@@H](C)O [STAT-6-IP, Tyr-Ala-Arg-Ala-Ala-Ala-Arg-Gln-Ala-Arg-Ala-Gly-Arg-Gly-Tyr*-Val-Ser-Thr-Thr] (H-YARAAARQARAGRG[pY]VSTT-OH; N-terminus and C-terminus assumed)",–,–,–,–,–,–,–,–,–,–,~8 h,100.00 ± 0.00%,93.69 ± 17.14%,68.33 ± 17.42%,up to 24 hours,66.56 ± 15.04%,46.47 ± 15.98%,38.50 ± 51.74%
